# Biological target: human alpha-synuclein (wild-type, recombinant)
protein,measurement,value
IKBKB (protein) MSWSPSLTTQTCGAWEMKERLGTGGFGNVIRWHNQETGEQIAIKQCRQELSPRNRERWCLEIQIMRRLTHPNVVAARDVPEGMQNLAPNDLPLLAMEYCQGGDLRKYLNQFENCCGLREGAILTLLSDIASALRYLHENRIIHRDLKPENIVLQQGEQRLIHKIIDLGYAKELDQGSLCTSFVGTLQYLAPELLEQQKYTVTVDYWSFGTLAFECITGFRPFLPNWQPVQWHSKVRQKSEVDIVVSEDLNGTVKFSSSLPYPNNLNSVLAERLEKWLQLMLMWHPRQRGTDPTYGPNGCFKALDDILNLKLVHILNMVTGTIHTYPVTEDESLQSLKARIQQDTGIPEEDQELLQEAGLALIPDKPATQCISDGKLNEGHTLDMDLVFLFDNSKITYETQISPRPQPESVSCILQEPKRNLAFFQLRKVWGQVWHSIQTLKEDCNRLQQGQRAAMMNLLRNNSCLSKMKNSMASMSQQLKAKLDFFKTSIQIDLEKYSEQTEFGITSDKLLLAWREMEQAVELCGRENEVKLLVERMMALQTDIVDLQRSPMGRKQGGTLDDLEEQARELYRRLREKPRDQRTEGDSQEMVRLLLQAIQSFEKKVRVIYTQLSKTVVCKQKALELLPKVEEVVSLMNEDEKTVVRLQEKRQKELWNLLKIACSKVRGPVSGSPDSMNASRLSQPGQLMSQPSTASNSLPEPAKKSEELVAEAHNLCTLLENAIQDTVREQDQSFTALDWSWLQTEEEEHSCLEQAS,"in vitro kinase reaction, phosphorylation of alpha-synuclein",shown to be incapable of directly phosphorylating alpha-synuclein

# Reference: patent publication US20110207796
